Results from publication PMC12550018, “High-resolution native electrophoresis in-gel activity assay reveals biological insights of medium-chain fatty acyl-CoA dehydrogenase deficiency” (Scientific Reports, 2025).
Positions count from the first letter of the chain named. In names and notes the source's numbering stands.

B1: Medium-chain specific acyl-CoA dehydrogenase (MCAD), human recombinant wild type (enzyme, UniProt P11310-1 26-421, looked up)
chain: KANRQREPGLGFSFEFTEQQKEFQATARKFAREEIIPVAAEYDKTGEYPVPLIRRAWELGLMNTHIPENCGGLGLGTFDACLISEELAYGCTGVQTAIEGNSLGQMPIIIAGNDQQKKKYLGRMTEEPLMCAYCVTEPGAGSDVAGIKTKAEKKGDEYIINGQKMWITNGGKANWYFLLARSDPDPKAPANKAFTGFIVEADTPGIQIGRKELNMGQRCSDTRGIVFEDVKVPKENVLIGDGAGFKVAMGAFDKTRPVVAAGAVGLAQRALDEATKYALERKTFGKLLVEHQAISFMLAEMAMKVELARMSYQRAAWEVDSGRRNTYYASIAKAFAGDIANQLATDAVQILGGNGFNTEYPVEKLMRDAKIYQIYEGTSQIQRLIVAREHIDKYKN
notes: Medium-chain specific acyl-CoA dehydrogenase (MCAD), human, encoded by ACADM; One FAD per monomer; also called MCAD WT; human recombinant MCAD; not shown: MBP, N-terminal, cleaved
B2: MCAD variant p.K329E, human recombinant (enzyme, UniProt P11310-1 26-421, looked up)
chain: B1 chain with K304E
notes: MCAD, human, encoded by ACADM, clinically relevant variant p.K329E made by site-directed mutagenesis in pMALc2X; masses fit the mature protein (26-421); The residue number counts on the precursor; also called MCAD K329E; not shown: MBP, N-terminal, cleaved
B3: MCAD variant p.R206C, human recombinant (enzyme, UniProt P11310-1 26-421, looked up)
chain: B1 chain with R181C
notes: MCAD, human, encoded by ACADM, clinically relevant variant p.R206C made by site-directed mutagenesis in pMALc2X; masses fit the mature protein (26-421); The residue number counts on the precursor; Native MS: only three FAD per tetramer; also called MCAD R206C; not shown: MBP, N-terminal, cleaved
B4: MCAD variant p.Y67H, human recombinant (enzyme, UniProt P11310-1 26-421, looked up)
chain: B1 chain with Y42H
notes: MCAD, human, encoded by ACADM, clinically relevant variant p.Y67H made by site-directed mutagenesis in pMALc2X; masses fit the mature protein (26-421); The residue number counts on the precursor; also called MCAD Y67H; not shown: MBP, N-terminal, cleaved
B5: Glutaryl-CoA dehydrogenase (GCDH), human recombinant wild type (enzyme, UniProt Q92947 45-438, looked up)
chain: RPEFDWQDPLVLEEQLTTDEILIRDTFRTYCQERLMPRILLANRNEVFHREIISEMGELGVLGPTIKGYGCAGVSSVAYGLLARELERVDSGYRSAMSVQSSLVMHPIYAYGSEEQRQKYLPQLAKGELLGCFGLTEPNSGSDPSSMETRAHYNSSNKSYTLNGTKTWITNSPMADLFVVWARCEDGCIRGFLLEKGMRGLSAPRIQGKFSLRASATGMIIMDGVEVPEENVLPGASSLGGPFGCLNNARYGIAWGVLGASEFCLHTARQYALDRMQFGVPLARNQLIQKKLADMLTEITLGLHACLQLGRLKDQDKAAPEMVSLLKRNNCGKALDIARQARDMLGGNGISDEYHVIRHAMNLEAVNTYEGTHDIHALILGRAITGIQAFTASK
notes: Glutaryl-CoA dehydrogenase, human, wild type; source: purified by a procedure similar to that for MCAD (E. coli, MBPTrap, TEV digestion, SEC)

Columns and labels:
[1] = molecular target: the molecule itself; assay: SEC; Superdex 200 5/150 GL, 2 mg/ml protein, 0.1 ml PBS/min, 5 °C, absorbance at 280 nm; mass by calibration with protein standards
[2] = molecular target: the molecule itself; assay: native gel or EMSA; high-resolution clear native PAGE (hrCN-PAGE) of purified recombinant protein, 4-16% or 4-20% gradient gels, pH 7.0, cathode buffer with 0.05% sodium deoxycholate and 0.01% n-dodecyl-beta-D-maltoside; Coomassie, FAD fluorescence and acyl-CoA:NBT in-gel activity staining

| Protein | stoichiometry N [1] | binding result [2] |
| --- | --- | --- |
| B1 | 4 |  |
| B2 | 4 |  |
| B3 | 4 |  |
| B4 | 4 |  |
| B5 |  | binds |
